{
  "source": "patent US20070036793A1",
  "about": "“Methods for use of an lkb1/strad7mo25 complex” (priority 2003, published 2007)",
  "target": "T1, T-loop peptide of AMPK (Example 3)",
  "T1 chain": "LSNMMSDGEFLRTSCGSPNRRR",
  "data": [
    {"protein": "recombinant GST-LKB1:STRADα:MO25α complex (protein) chain 1: MDVADPEPLGLFSEGELMSVGMDTFIHRIDSTEVIYQPRRKRAKLIGKYLMGDLLGEGSYGKVKEVLDSETLCRRAVKILKKKKLRRIPNGEANVKKEIQLLRRLRHRNVIQLVDVLYNEEKQKMYMVMEYCVCGMQEMLDSVPEKRFPVCQAHGYFRQLIDGLEYLHSQGIVHKDIKPGNLLLTTNGTLKISDLGVAEALHPFAVDDTCRTSQGSPAFQPPEIANGLDTFSGFKVDIWSAGVTLYNITTGLYPFEGDNIYKLFENIGRGDFTIPCDCGPPLSDLLRGMLEYEPAKRFSIRQIRQHSWFRKKHPLAEALVPIPPSPDTKDRWRSMTVVPYLEDLHGRAEEEEEEDLFDIEDGIIYTQDFTVPGQVLEEEVGQNGQSHSLPKAVCVNGTEPQLSSKVKPEGRPGTANPARKVCSSNKIRRLSACKQQ chain 2: DYKDDDDKMSFLVSKPERIRRWVSEKFIVEGLRDLELFGEQPPGDTRRKTNDASSESIASFSKQEVMSSFLPEGGCYELLTVIGKGFEDLMTVNLARYKPTGEYVTVRRINLEACSNEMVTFLQGELHVSKLFNHPNIVPYRATFIADNELWVVTSFMAYGSAKDLICTHFMDGMNELAIAYILQGVLKALDYIHHMGYVHRSVKASHILISVDGKVYLSGLRSNLSMISHGQRQRVVHDFPKYSVKVLPWLSPEVLQQNLQGYDAKSDIYSVGITACELANGHVPFKDMPATQMLLEKLNGTVPCLLDTSTIPAEELTMSPSRSVANSGLSDSLTTSTPRPSNGDSPSHPYHRTFSPHFHHFVEQCLQRNPDARPSASTLLNHSFFKQIKRRASEALPELLRPVTPITNFEGSQSQDHSGIFGLVTNLEELEVDDWEF chain 3: MPFPFGKSHKSPADIVKNLKESMAVLEKQDISDKKAEKATEEVSKNLVAMKEILYGTNEKEPQTEAVAQLAQELYNSGLLSTLVADLQLIDFEGKKDVAQIFNNILRRQIGTRTPTVEYICTQQNILFMLLKGYESPEIALNCGIMLRECIRHEPLAKIILWSEQFYDFFRYVEMSTFDIASDAFATFKDLLTRHKLLSAEFLEQHYDRFFSEYEKLLHSENYVTKRQSLKLLGELLLDRHNFTIMTKYISKPENLKLMMNLLRDKSRNIQFEAFHVFKVFVANPNKTQPILDILLKNQAKLIEFLSKFQNDRTEDEQFNDEKTYLVKQIRDLKRPAQQEA", "values": [
      {"measurement": "Km (phosphorylation of the T-loop peptide)", "result": "The Km for the peptide was estimated to be 1.80±0.48"},
      {"measurement": "Vmax of phosphorylation of AMPKtide by the GST-LKB1-STRADα-MO25α complex", "result": "Vmax: 23.43 ± 3.51 U/mg"}
    ]}
  ]
}
